Assay results as given in US10921309 (dated 2021).

Key:
[1] = molecular target: T1, OBn(GGS)2t-FhuA (barnase nanopore sensor) (Bacillus amyloliquefaciens / E. coli); assay: other, single-molecule nanopore
T1 chain: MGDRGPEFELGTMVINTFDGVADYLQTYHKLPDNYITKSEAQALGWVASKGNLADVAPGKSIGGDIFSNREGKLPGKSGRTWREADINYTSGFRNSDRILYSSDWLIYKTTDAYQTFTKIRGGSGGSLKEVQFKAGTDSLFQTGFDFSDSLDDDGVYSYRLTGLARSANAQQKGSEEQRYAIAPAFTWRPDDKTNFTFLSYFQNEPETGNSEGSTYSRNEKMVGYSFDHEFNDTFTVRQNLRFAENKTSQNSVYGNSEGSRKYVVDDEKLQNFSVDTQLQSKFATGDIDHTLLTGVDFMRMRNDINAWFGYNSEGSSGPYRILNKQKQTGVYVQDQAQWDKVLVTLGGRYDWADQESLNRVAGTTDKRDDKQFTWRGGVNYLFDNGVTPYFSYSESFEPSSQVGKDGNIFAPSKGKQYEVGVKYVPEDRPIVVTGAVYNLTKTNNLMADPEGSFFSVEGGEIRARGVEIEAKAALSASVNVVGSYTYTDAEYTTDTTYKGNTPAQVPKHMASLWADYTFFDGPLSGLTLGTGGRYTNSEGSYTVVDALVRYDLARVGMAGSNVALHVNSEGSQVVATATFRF

[2] = molecular target: T1, OBn(GGS)2t-FhuA (barnase nanopore …); assay: other, single-molecule nanopore, high Bs concentration
[3] = molecular target: T1, OBn(GGS)2t-FhuA (barnase nanopore …); assay: other, single-molecule nanopore, 300 mM KCl, pH 8

B1: Barstar (Bs) (protein)
chain: MKKAVINGEQIRSISDLHQTLKKELALPEYYGENLDALWDALTGWVEYPLVLEWRQFEQSKQLTENGAESVLQVFREAKAEGADITIILS
[1]
  Kd: 61 nM
[2]
  Kd: 82 nM
[3]
  Kd: 64 nM
